Residue numbers refer to the chain shown, from its start.
B1: Human ubiquitin C-terminal hydrolase Uch37, full-length (enzyme, UniProt Q9Y5K5 1-329, looked up)
chain: MTGNAGEWCLMESDPGVFTELIKGFGCRGAQVEEIWSLEPENFEKLKPVHGLIFLFKWQPGEEPAGSVVQDSRLDTIFFAKQVINNACATQAIVSVLLNCTHQDVHLGETLSEFKEFSQSFDAAMKGLALSNSDVIRQVHNSFARQQMFEFDTKTSAKEEDAFHFVSYVPVNGRLYELDGLREGPIDLGACNQDDWISAVRPVIEKRIQKYSEGEIRFNLMAIVSDRKMIYEQKIAELQRQLAEEEPMDTDQGNSMLSAIQSEVAKNQMLIEEEVQKLKRYKIENIRRKHNYLPFIMELLKTLAEHQQLIPLVEKAKEKQNAKKAQETK
B2: Full-length Uch37 containing only one cysteine (C27), labelled with Alexa Fluor 555 and Alexa Fluor 647 (enzyme, human, UniProt Q9Y5K5 1-329, looked up)
chain: B1 chain with C9A, C88A, C100A, C191A
modifications: Cys27 conjugated to Alexa Fluor 555 or Alexa Fluor 647 (randomly)
B3: Rpn13C (Rpn13 residues 270-407) (domain or fragment, UniProt Q16186 270-407, looked up)
chain: ILATMNVPAGPAGGQQVDLASVLTPEIMAPILANADVQERLLPYLPSGESLPQTADEIQNTLTSPQFQQALGMFSAALASGQLGPLMCQFGLPAEAVEAANKGDVEAFAKAMQNNAKPEQKEGDTKDKKDEEEDMSLD

Experiments:
[1] = target: the molecule itself; experiment: time-resolved SAXS; stopped-flow mixing of Uch37 and Rpn13C at a 1:1 monomer molar ratio, overall 3.7 mg/mL, 8 ms to 600 s; I0 and Rg against time
[2] = target: the molecule itself; experiment: FRET or BRET; Uch37 (C27 only) randomly labelled with Alexa Fluor 555 and 647, 250 nmol/L, excited at 550 nm; then an excess molar amount of Rpn13C added, 30 min
[3] = target: B1; experiment: SPR; Biacore3000, 25°C, PBS; Rpn13C immobilised on CM5 by amine coupling, Uch37 15.6-500 nmol/L flowed over; 1:1 Langmuir model; details: both partners purified
[4] = target: B2; experiment: FRET or BRET; Uch37 (C27 only) randomly labelled with Alexa Fluor 555 and 647, 250 nmol/L, excited at 550 nm; then an excess molar amount of Rpn13C added, 30 min; details: both partners purified

Binder: B1
- binding result [1]: binds

Binder: B2
- binding result [2]: binds

Binder: B3
- Kd [3]: 5.35 nM
- binding result [4]: binds

From PMC4130924 (Protein & Cell, 2014)
